Measured values: patent publication US20160312197

Columns and labels:
Assay in all cases: cell_activity
[1] = tested on: CCR5 ZFN, L7a linker (FokI) (Artificial Sequence)
[2] = tested on: CCR5 ZFN, L6a linker (FokI) (Artificial Sequence)
[3] = molecular target: CCR5 ZFN SBS 8266, wild-type ZC linker (FokI) (Artificial Sequence) (UniProt P14870)
[4] = tested on: mROSA-targeted ZFN pair, Wt/L7a linkers (Artificial Sequence); conditions: Neuro2A, mock 0.4
[5] = tested on: mROSA-targeted ZFN pair, Wt/Wt linkers (Artificial Sequence); conditions: Neuro2A, mock 0.4
[6] = tested on: rat IgM-targeted ZFN pair, ZC linkers (Artificial Sequence); conditions: rat C6 cells
[7] = tested on: rat IgM-targeted ZFN pair, one L7a linker (Artificial Sequence); conditions: rat C6 cells
[8] = no cleavage at this spacing, binding not measured

Sequence of CCR5 ZFN, L7a linker (FokI) (Artificial Sequence) (chain, as listed by the source): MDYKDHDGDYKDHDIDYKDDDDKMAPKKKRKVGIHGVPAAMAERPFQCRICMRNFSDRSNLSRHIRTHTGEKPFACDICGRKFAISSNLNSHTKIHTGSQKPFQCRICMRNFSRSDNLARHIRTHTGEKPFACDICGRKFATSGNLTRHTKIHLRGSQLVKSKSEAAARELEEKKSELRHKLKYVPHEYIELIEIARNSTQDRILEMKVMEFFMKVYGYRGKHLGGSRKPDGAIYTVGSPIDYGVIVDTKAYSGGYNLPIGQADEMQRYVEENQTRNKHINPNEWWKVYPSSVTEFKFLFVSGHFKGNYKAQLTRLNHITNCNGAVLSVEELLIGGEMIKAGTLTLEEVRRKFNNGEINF
Sequence of CCR5 ZFN SBS 8266, wild-type ZC linker (FokI) (Artificial Sequence) (P14870 other isoform, or with tags, fused parts or gaps): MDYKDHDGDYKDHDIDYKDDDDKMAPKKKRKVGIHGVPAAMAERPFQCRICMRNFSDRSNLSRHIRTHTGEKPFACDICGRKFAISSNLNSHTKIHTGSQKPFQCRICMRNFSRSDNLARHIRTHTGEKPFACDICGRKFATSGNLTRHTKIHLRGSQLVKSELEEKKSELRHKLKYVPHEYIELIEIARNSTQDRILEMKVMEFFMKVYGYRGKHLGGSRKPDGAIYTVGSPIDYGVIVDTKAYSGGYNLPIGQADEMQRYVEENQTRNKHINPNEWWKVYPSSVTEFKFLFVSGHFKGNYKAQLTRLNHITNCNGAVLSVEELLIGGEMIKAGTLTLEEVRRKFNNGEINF
Sequence of CCR5 ZFN, L6a linker (FokI) (Artificial Sequence) (chain, as listed by the source): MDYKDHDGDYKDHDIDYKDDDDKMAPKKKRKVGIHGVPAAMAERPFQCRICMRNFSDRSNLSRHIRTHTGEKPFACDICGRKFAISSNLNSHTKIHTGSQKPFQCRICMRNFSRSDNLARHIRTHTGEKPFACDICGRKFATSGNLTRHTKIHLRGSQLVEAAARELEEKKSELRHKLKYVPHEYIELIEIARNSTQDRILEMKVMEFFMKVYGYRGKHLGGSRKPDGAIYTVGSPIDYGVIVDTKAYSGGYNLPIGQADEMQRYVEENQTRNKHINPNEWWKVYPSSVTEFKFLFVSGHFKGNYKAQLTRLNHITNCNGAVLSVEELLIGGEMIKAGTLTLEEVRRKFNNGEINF

## CCR5 ZFN sites, 6 bp gap
[1]; ZFN pair, average of 2
  activity: 31.8 % NHEJ
[2]; ZFN pair, average of 2
  activity: 25.4 % NHEJ
[3]; ZFN pair, average of 2
  activity: 11.1 % NHEJ

## CCR5 ZFN sites, 5 bp gap
[1]; [8]
  activity: 0 % NHEJ
[2]; ZFN pair, average of 2
  activity: 39.3 % NHEJ
[3]; ZFN pair, average of 2
  activity: 35 % NHEJ

## CCR5 ZFN sites, 8 bp gap
[1]; ZFN pair, average of 2
  activity: 6.1 % NHEJ
[2]; [8]
  activity: 0 % NHEJ
[3]; [8]
  activity: 0 % NHEJ

## CCR5 ZFN sites, 7 bp gap
[1]; ZFN pair, average of 2
  activity: 39.6 % NHEJ
[2]; ZFN pair, average of 2
  activity: 5.1 % NHEJ
[3]; [8]
  activity: 0 % NHEJ

## CCR5 ZFN sites, 4 bp gap
[1]; [8]
  activity: 0 % NHEJ
[2]; [8]
  activity: 0 % NHEJ
[3]; ZFN pair, average of 2
  activity: 1.2 % NHEJ

## mROSA target, 6 bp gap
[4]
  activity: 7.5 % NHEJ
[5]
  activity: 22.6 % NHEJ

## rat IgM target, 6 bp gap
[6]
  activity: 1.93 % NHEJ
[7]
  activity: 2.43 % NHEJ
